According to US20090202520A1 (PROMEDIOR, published 2009):

B2: C-reactive protein (CRP) (ligand, human, UniProt P02741 19-224, looked up)
chain: QTDMSRKAFVFPKESDTSYVSLKAPLTKPLKAFTVCLHFYTELSSTRGYSIFSYATKRQDNEILIFWSKDIGYSFTVGGSEILFEVPEVTVAPVHICTSWESASGIVEFWVDGKPRVRKSLKKGYTVGAEASIILGQEQDSFGGNFEGSQSLVGDIGNVNMWDFVLSPDEINTIYLGGPFSPNVLNWRALKYEVQGEVFTKPQLWP
notes: In the SPR assay CRP was captured on PC-KLH immobilised on a CM5 chip; also called hCRP; PTX1

Tests used:
serum amyloid P (SAP) [1] = target: T1, serum amyloid P (SAP) (human, UniProt P02743 20-223); test: SPR (Biacore X100), SAP on CM5 chip, soluble receptor flowed
T1 construct: Pentamer of five non-covalently associated protomers; also called hSAP; human serum amyloid protein P
T1 sequence (P02743 20-223): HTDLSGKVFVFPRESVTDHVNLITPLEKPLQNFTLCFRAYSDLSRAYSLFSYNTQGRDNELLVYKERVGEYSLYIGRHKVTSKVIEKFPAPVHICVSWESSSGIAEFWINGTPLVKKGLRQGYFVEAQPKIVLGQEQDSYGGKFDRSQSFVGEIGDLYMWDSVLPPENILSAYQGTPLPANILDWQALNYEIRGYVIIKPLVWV
Description: (§1) Surface plasmon resonance technology detects and quantifies binding and dissociation events between two proteins through a change in mass at the surface of a chip that is detected as a change in surface plasmon resonance. For these studies we used a Biacore X100 instrument.
(§2) SAP was bound to the surface of the test flow cell of a chip and a soluble recombinant form of Fcγ receptor (sFcγR) was flowed across the surface of the chip, representing the contact or binding phase. Buffer was then flowed across the chip surface, representing the dissociation phase. Change in mass at the cell surface with respect to time, detected as a change in surface plasmon resonance units (RUs) with time, was represented by a graph called a sensorgram. Binding of SAP to the CM5 dextran surface of a Biacore CM5 chip was performed in the presence of 10 mM Hepes, 150 mM NaCl, 0.5 mM CaCl₂, pH 7.4 as running buffer. Binding of SAP was stabilized by a very short immobilization using amine coupling (Biacore reagents) which covalently linked a limited representation of amine-group-containing amino acids on SAP to groups on the chip surface activated with 1-ethyl-3-(3-dimethylaminopropyl)carbodiimide and N-hydroxysuccinimide. A negative control flow cell was prepared using the same amine coupling procedure to immobilize human serum albumin to the same level as SAP. […]

[2] = target: T2, soluble recombinant FcγRI (sFcγRI) (UniProt P12314 16-292); test: SPR steady-state plot of Req against FcγRI concentration (early association phase data); CRP captured via PC-KLH on CM5 chip; vertical line marks the KD estimate
T2 construct: extracellular domain; also called FcγR1; not shown: C-terminal poly-histidine tail of 6-10 histidines
T2 sequence (P12314 16-292): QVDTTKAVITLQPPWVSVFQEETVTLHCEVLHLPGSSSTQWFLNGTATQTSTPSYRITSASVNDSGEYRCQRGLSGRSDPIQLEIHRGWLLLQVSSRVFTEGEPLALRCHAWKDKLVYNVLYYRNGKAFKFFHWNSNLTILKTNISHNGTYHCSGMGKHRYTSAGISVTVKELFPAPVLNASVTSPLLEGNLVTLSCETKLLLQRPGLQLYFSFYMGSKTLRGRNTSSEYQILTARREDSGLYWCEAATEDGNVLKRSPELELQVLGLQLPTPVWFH
Procedure: (§3) Similar methods were used to evaluate binding interactions between CRP and sFcγRs, and details were the same except where stated here. Binding of CRP to Biacore CM5 chips was achieved through capture via PC-KLH (phosphocholine-keyhole limpet hemocyanin conjugate). Briefly, PC-KLH was immobilized onto a CM5 chip through amine coupling onto the chip surface activated with 1-ethyl-3-(3-dimethylaminopropyl)carbodiimide and N-hydroxysuccinimide. A negative control flow cell was prepared using the same amine coupling to immobilize human serum albumin to the same level as the PC-KLH. Binding of CRP to the PC moiety of PC-KLH immobilized on the CM5 chip was achieved by contacting the surface of the CM5 chip with the CRP in 10 mM Hepes, 150 mM NaCl, 0.5 mM CaCl₂, pH 7.4, to achieve the desired amount of bound CRP. We established that binding was specific for the PC moiety in PC-KLH, since no binding to KLH immobilized to the same level was evident when this was attempted on a different flow cell using the same conditions and the same 10 mM Hepes, 150 mM NaCl, 0.5 mM CaCl₂, pH 7.4, as running buffer. Binding of CRP to PC-KLH was stabilized by a very short immobilization using amine coupling. […]

C-reactive protein (CRP) = target: B2; test: SPR steady-state plot of Req against FcγRIIIB concentration (early association phase data); CRP captured via PC-KLH on CM5 chip; dotted vertical line marks the KD estimate, beyond the highest concentration tested (3e-6 M)
Procedure: as §3

serum amyloid P (SAP) [3] = target: T1, serum amyloid P (SAP); test: SPR (Biacore X100), SAP on CM5 chip, soluble receptor flowed, single cycle kinetics, KD = Kd/Ka
Description: as §1, §2

B1: soluble recombinant FcγRIIB (receptor, UniProt P31994 43-217, looked up)
chain: TPAAPPKAVLKLEPQWINVLQEDSVTLTCRGTHSPESDSIQWFHNGNLIPTHTQPSYRFKANNNDSGEYTCQTGQTSLSDPVHLTVLSEWLVLQTPHLEFQEGETIVLRCHSWKDKPLVKVTFFQNGKSKKFSRSDPNFSIPQANHSHSGDYHCTGNIGYTLYSSKPVTITVQAP
notes: extracellular domain; not shown: C-terminal poly-histidine tail of 6-10 histidines
binding result (serum amyloid P (SAP) [1]): no binding

B2
Kd [2]: ~1.45 µM

B3: soluble recombinant FcγRIIIB (sFcγRIIIB) (receptor, UniProt O75015 17-200, looked up)
chain: GMRTEDLPKAVVFLEPQWYSVLEKDSVTLKCQGAYSPEDNSTQWFHNENLISSQASSYFIDAATVNDSGEYRCQTNLSTLSDPVQLEVHIGWLLLQAPRWVFKEEDPIHLRCHSWKNTALHKVTYLQNGKDRKYFHHNSDFHIPKATLKDSGSYFCRGLVGSKNVSSETVNITITQGLAVSTIS
notes: as for B1
Kd (C-reactive protein (CRP)): ~15.6 µM

B4: soluble recombinant FcγRIIA (H131 variant) (receptor)
chain: QAAPPKAVLKLEPPWINVLQEDSVTLTCQGARSPESDSIQWFHNGNLIPTHTQPSYRFKANNNDSGEYTCQTGQTSLSDPVHLTVLSEWLVLQTPHLEFQEGETIMLRCHSWKDKPLVKVTFFQNGKSQKFSHLDPTFSIPQANHSHSGDYHCTGNIGYTLFSSKPVTITVQVPSMGSSSPMG
notes: also called FcγR2A; not shown: C-terminal poly-histidine tail of 6-10 histidines
Kd (serum amyloid P (SAP) [3]): 0.00017 µM
